# T1: C2 (Comptech A112) (UniProt P06681 21-752)
# T1 sequence (looked up): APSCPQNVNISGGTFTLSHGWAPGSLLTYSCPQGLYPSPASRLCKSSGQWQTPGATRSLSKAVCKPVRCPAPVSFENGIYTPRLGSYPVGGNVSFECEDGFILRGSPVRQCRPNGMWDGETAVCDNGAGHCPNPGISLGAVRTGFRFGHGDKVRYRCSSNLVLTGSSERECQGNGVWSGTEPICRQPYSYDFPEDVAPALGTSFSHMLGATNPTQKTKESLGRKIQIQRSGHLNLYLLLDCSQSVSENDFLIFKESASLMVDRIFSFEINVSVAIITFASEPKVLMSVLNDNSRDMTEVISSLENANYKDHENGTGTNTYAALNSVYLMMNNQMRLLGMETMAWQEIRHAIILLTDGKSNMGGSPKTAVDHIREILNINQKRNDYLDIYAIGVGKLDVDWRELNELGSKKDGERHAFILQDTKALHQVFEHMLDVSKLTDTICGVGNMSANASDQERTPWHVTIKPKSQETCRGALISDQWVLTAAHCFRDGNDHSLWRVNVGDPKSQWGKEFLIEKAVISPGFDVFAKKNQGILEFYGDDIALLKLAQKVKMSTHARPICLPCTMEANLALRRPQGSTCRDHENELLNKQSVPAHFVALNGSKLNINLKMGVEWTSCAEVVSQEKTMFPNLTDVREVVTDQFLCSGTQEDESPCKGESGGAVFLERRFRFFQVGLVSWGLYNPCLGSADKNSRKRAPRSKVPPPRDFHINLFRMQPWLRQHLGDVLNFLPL
# Columns and labels:
# [1] = molecular target: T2, Homo sapiens factor Bb protein (human, UniProt P00751 260-764); test: SPR single cycle kinetics; ratio against VH0/Vκ0
# T2 construct: Bought from CompTech (A155); also called complement factor Bb; human factor Bb
# Experimental: All single cycle kinetic experiments were run at 25° C. with HBS-P+running buffer (pH 7. 4) (GE Healthcare, Little Chalfont, UK).
# Antibodies were diluted in running buffer to a final concentration of 1 μg/ml, based on concentrations assessed by ELISA titer. At the start of each cycle, antibodies were loaded onto Fc2, Fc3 and Fc4 of the Protein A chip (GE Healthcare, Little Chalfont, UK). IgGs were captured at a flow rate of 10 μl/min to give an immobilization level (RL) of ˜63 RU, the theoretical value to obtain an Rmax of ˜50 RU. The surface was then allowed to stabilize. Single cycle kinetic data was obtained with factor Bb (CompTech, Tyler, USA) as the analyte at a flow rate of 30 μl/min to minimize any potential mass transport limitations. Multiple repeats with the reference chimeric antibody were performed to check the stability of the surface and analyte over the kinetic cycles. The signal from the reference channel Fc1 (no antibody) was subtracted from that of Fc2, Fc3 and Fc4 to correct for differences in non-specific binding to a reference surface. A four point, two-fold dilution range from 0. 78 nM to 6. 25 nM factor Bb without regeneration between each concentration was used. The association phase for the four injections of increasing concentrations of factor Bb was monitored for 200 seconds each time and a single dissociation phase was measured for 200 seconds following the last injection of factor Bb. Regeneration of the Protein A surface was conducted using two injections of 10 mM glycine-HCL pH 1. 5.
# Single cycle kinetics using cell culture supernatants were performed as described above. […] The relative KD was calculated by dividing the KD of the VH0/Vκ0 reference antibody by that of the humanized variant assayed in the same experiment.
# [2] = molecular target: T2, Homo sapiens factor Bb protein; test: SPR single cycle kinetics; against cynomolgus monkey factor Bb
# Experimental: (§1) The ability of VH4/VK6 and VH6/VK7 to bind to zymogen factor B and factor Bb from both human and cynomolgus monkey was determined by surface plasmon resonance using a Biacore T200. Human factor B and factor Bb were purchased from Comptech and cynomolgus monkey factor B and factor Bb were purified in-house. Briefly, the monoclonal antibodies were captured on a Biacore Series S Protein A chip in HBSP+ (10 mM HEPES, 150 mM NaCl, 0.05% P20 pH 7.4) at a flow rate of 30 μL/min. A five-point concentration series of each analyte was tested for binding using single cycle kinetics with a contact time of 180 seconds per concentration followed by a 600 sec dissociation at 25° C. and a flow rate of […]. Both human and cynomolgus monkey factor B started at a concentration of 500 nM followed by 2-fold dilutions, while human and cynomolgus monkey factor Bb started at concentrations of 30 nM and 150 nM, respectively, followed by 2-fold dilutions. Data were analyzed using the Biacore evaluation software using a 1:1 binding model. […] Binding to human or cynomolgus monkey factor B was barely detectable and the small signal that was observed was dominated by non-specific binding.
# [3] = molecular target: T2, Homo sapiens factor Bb protein; test: SPR single cycle kinetics, antibody on Protein A chip, antigen analyte
# Experimental: as §1
# C2 (Comptech A112) = molecular target: T1, C2 (Comptech A112); test: ELISA, target coated at 2.5 µg/mL, biotinylated antibody titrated, streptavidin-HRP, OD450 background subtracted
# Experimental: Briefly, complement and plasma proteins were coated onto ELISA plates at 2. 5 μg/mL in PBS overnight at 4° C. Plates were then blocked with Casein for 1 hour at room temperature and washed four times with 1× DPBS/0.05% Tween-20 followed by a single wash with 1× DPBS. Serial dilutions starting at 50 μg/ml of biotinylated chimeric parent or VH6/VK7-IgG4v2 were added to the plate in PBS/0.1%casein/0.1%Tween-20 and incubated for 2 hours at room temperature. Plates were washed as described and a 1:10,000 dilution of streptavidin-HRP (Southern Biotech 7100-05) in PBS/0.1% casein/0.1% Tween-20 was added to the plate and incubated for 30 minutes at room temperature. Plates were again washed and Ultra TMP ELISA (Thermo 34028) was added to the plate for 1 minute, followed by stop solution). OD 450 nm was read in a plate reader and background at 620 nm was subtracted. Both the chimeric parent (FIG. 8A) and the humanized variant (FIG. 8B) show complete specificity for factor Bb.
# T2 sequence (P00751 260-764 limits assumed): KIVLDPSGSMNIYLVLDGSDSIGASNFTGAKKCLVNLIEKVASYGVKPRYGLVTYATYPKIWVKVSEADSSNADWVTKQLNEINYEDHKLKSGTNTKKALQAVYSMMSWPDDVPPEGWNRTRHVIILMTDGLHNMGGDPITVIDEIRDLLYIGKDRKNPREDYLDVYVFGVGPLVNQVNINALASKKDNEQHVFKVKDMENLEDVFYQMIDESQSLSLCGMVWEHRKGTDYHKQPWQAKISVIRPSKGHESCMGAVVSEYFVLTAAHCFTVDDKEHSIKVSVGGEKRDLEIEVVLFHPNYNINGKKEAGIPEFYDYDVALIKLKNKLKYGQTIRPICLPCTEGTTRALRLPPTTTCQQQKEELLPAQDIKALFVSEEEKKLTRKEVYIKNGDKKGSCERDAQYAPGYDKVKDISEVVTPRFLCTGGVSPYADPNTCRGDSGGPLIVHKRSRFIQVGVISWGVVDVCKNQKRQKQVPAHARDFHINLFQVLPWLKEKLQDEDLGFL
Binder,Relative KD [1],fold higher affinity for human factor Bb compared to cynomolgus monkey factor Bb [2] [fold],Kd [3] [nM],koff [3] [s⁻¹],kon [3] [M⁻¹ s⁻¹],binding result (C2 (Comptech A112))
"VH0/Vκ0 (Chimeric) (antibody, V domains shown, also called chimeric antibody) VH: EVQLVESGGALVKPGGSLKLSCAASGFTFSNYAMSWVRQTPEKRLEWVATISNRGSYTYYPDSVKGRFTISRDNAKNTLYLQMSSLRSEDTALYYCARERPMDYWGQGTSVTVSS VL: DIVMTQSHKFMSTSVGDRVSITCKASQDVGTAVAWYQQKPGQSPKLLIYWASTRHTGVPDRFTGSGSGTDFTLTITNVQSEDLAVYFCHQHSSNPLTFGAGTKLELK",1,,,,,
"VH6/Vκ7-IgG4v2 (antibody, also called VH6/VK7-IgG4v2; VH6/VK7-IgG4v2_HEK) heavy: not shown light: DIQMTQSPSTLSASVGDRVTITCKASQDVGTAVAWYQQKPGKAPKLLIYWASTRHTGVPDRFSGSGSGTDFTLTISSLQAEDFAVYFCHQHSSNPLTFGQGTKLEIKRTVAAPSVFIFPPSDEQLKSGTASVVCLLNNFYPREAKVQWKVDNALQSGNSQESVTEQDSKDSTYSLSSTLTLSKADYEKHKVYACEVTHQGLSSPVTKSFNRGEC",,~10,5.92,0.00138,232000,no binding

# Source: US20210332115A1 (Sanofi, published 2021)
